# Test results reported in patent publication US20240376208A1 (AFFIMED, published 2024).
# T1: BCMA on MM.1S target cells (UniProt Q02223 1-184, limits assumed)
# T1 sequence (looked up): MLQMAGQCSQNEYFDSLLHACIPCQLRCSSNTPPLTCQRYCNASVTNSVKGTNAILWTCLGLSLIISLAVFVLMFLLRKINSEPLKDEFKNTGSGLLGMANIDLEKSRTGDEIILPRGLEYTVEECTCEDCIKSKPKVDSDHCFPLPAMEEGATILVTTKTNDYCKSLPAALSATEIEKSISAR
# B1: scFv-IgAb_167 (bispecific antibody)
# heavy: QVQLQESGPGLVKPSETLSLTCTVSGGSVSSGSYYWSWIRQPPGKGLEWIGYIYYSGSTNYNPSLKSRVTISVDTSKNQFSLKLSSVTAADTAVYYCARNPISIPAFDIWGQGTMVTVSSASTKGPSVFPLAPSSKSTSGGTAALGCLVKDYFPEPVTVSWNSGALTSGVHTFPAVLQSSGLYSLSSVVTVPSSSLGTQTYICNVNHKPSNTKVDKKVEPKSCDKTHTCPPCPAPEFEGGPSVFLFPPKPKDTLMISRTPEVTCVVVAVSHEDPEVKFNWYVDGVEVHNAKTKPREEQYNSTYRVVSVLTVLHQDWLNGKEYKCKVSNKALPAPIEKTISKAKGQPREPQVYTLPPSREEMTKNQVSLTCLVKGFYPSDIAVEWESNGQPENNYKTTPPVLDSDGSFFLYSKLTVDKSRWQQGNVFSCSVMHEALHNHYTQKSLSLSPGGGGGSGGGGSGGGGSGGGGSGGGGSGGGGSSYVLTQPSSVSVAPGQTARITCGGNNIGSKSVHWYQQKPGQAPVLVIYQDKKRPSGIPERFSGSNSGNTATLTISGTQAMDEADYYCQVWDDYIVLFGGGTKLTVLGGSGGSGGSGGSGGSGGSGGSQVQLVQSGAEVKKPGESLKVSCKASGYTFTNYYMQWVRQAPGQGLEWMGIINPSGGVTSYAQKFQGRVTMTRDTSTSTVYMELSSLRSEDTAVYYCARGSAYYYDFADYWGQGTLVTVSS
# light: QPVLTQPPSVSVAPGKTARITCGGNNIGSKSVHWYQQKPGQAPVLVIYYDSDRPSGIPERFSGSNSGNTATLTISRVEAGDEADYYCQVWDTSSDHVLFGGGTKLTVLGQPKAAPSVTLFPPSSEELQANKATLVCLISDFYPGAVTVAWKADSSPVKAGVETTTPSKQSNNKYAASSYLSLTPEQWKSHRSYSCQVTHEGSTVEKTVAPTECS
# B2: Bi-scDb-IgAb_06 (bispecific antibody)
# heavy: QVQLQESGPGLVKPSETLSLTCTVSGGSVSSGSYYWSWIRQPPGKGLEWIGYIYYSGSTNYNPSLKSRVTISVDTSKNQFSLKLSSVTAADTAVYYCARNPISIPAFDIWGQGTMVTVSSASTKGPSVFPLAPSSKSTSGGTAALGCLVKDYFPEPVTVSWNSGALTSGVHTFPAVLQSSGLYSLSSVVTVPSSSLGTQTYICNVNHKPSNTKVDKKVEPKSCDKTHTCPPCPAPEFEGGPSVFLFPPKPKDTLMISRTPEVTCVVVAVSHEDPEVKFNWYVDGVEVHNAKTKPREEQYNSTYRVVSVLTVLHQDWLNGKEYKCKVSNKALPAPIEKTISKAKGQPREPQVYTLPPSREEMTKNQVSLTCLVKGFYPSDIAVEWESNGQPENNYKTTPPVLDSDGSFFLYSKLTVDKSRWQQGNVFSCSVMHEALHNHYTQKSLSLSPGGGGGSGGGGSSYVLTQPSSVSVAPGQTATISCGGHNIGSKNVHWYQQRPGQSPVLVIYQDNKRPSGIPERFSGSNSGNTATLTISGTQAMDEADYYCQVWDNYSVLFGGGTKLTVLGGSGGSQVQLVQSGAEVKKPGESLKVSCKASGYTFTSYYMHWVRQAPGQGLEWMGAIEPMYGSTSYAQKFQGRVTMTRDTSTSTVYMELSSLRSEDTAVYYCARGSAYYYDFADYWGQGTLVTVSSGGSGGSGGSGGSGGSGGSSYVLTQPSSVSVAPGQTATISCGGHNIGSKNVHWYQQRPGQSPVLVIYQDNKRPSGIPERFSGSNSGNTATLTISGTQAMDEADYYCQVWDNYSVLFGGGTKLTVLGGSGGSQVQLVQSGAEVKKPGESLKVSCKASGYTFTSYYMHWVRQAPGQGLEWMGAIEPMYGSTSYAQKFQGRVTMTRDTSTSTVYMELSSLRSEDTAVYYCARGSAYYYDFADYWGQGTLVTVSS
# light: QPVLTQPPSVSVAPGKTARITCGGNNIGSKSVHWYQQKPGQAPVLVIYYDSDRPSGIPERFSGSNSGNTATLTISRVEAGDEADYYCQVWDTSSDHVLFGGGTKLTVLGQPKAAPSVTLFPPSSEELQANKATLVCLISDFYPGAVTVAWKADSSPVKAGVETTTPSKQSNNKYAASSYLSLTPEQWKSHRSYSCQVTHEGSTVEKTVAPTECS
# B3: aBi-scDb-Fc_01 (bispecific antibody)
# chain 1: SYVLTQPSSVSVAPGQTATISCGGHNIGSKNVHWYQQRPGQSPVLVIYQDNKRPSGIPERFSGSNSGNTATLTISGTQAMDEADYYCQVWDNYSVLFGGGTKLTVLGGSGGSQVQLVQSGAEVKKPGESLKVSCKASGYTFTSYYMHWVRQAPGQGLEWMGAIEPMYGSTSYAQKFQGRVTMTRDTSTSTVYMELSSLRSEDTAVYYCARGSAYYYDFADYWGQGTLVTVSSGGSGGSGGSGGSGGSGGSSYVLTQPSSVSVAPGQTATISCGGHNIGSKNVHWYQQRPGQSPVLVIYQDNKRPSGIPERFSGSNSGNTATLTISGTQAMDEADYYCQVWDNYSVLFGGGTKLTVLGGSGGSQVQLVQSGAEVKKPGESLKVSCKASGYTFTSYYMHWVRQAPGQGLEWMGAIEPMYGSTSYAQKFQGRVTMTRDTSTSTVYMELSSLRSEDTAVYYCARGSAYYYDFADYWGQGTLVTVSSGGGGSDKTHTCPPCPAPEFEGGPSVFLFPPKPKDTLMISRTPEVTCVVVAVSHEDPEVKFNWYVDGVEVHNAKTKPREEQYNSTYRVVSVLTVLHQDWLNGKEYKCKVSNKALPAPIEKTISKAKGQPREPQVYTLPPSREEMTKNQVSLTCLVKGFYPSDIAVEWESNGQPENNYKTTPPVLDSDGSFFLTSKLTVDKSRWQQGNVFSCSVMHEALHNHYTQKSLSLSPGAAAGSHHHHHH
# chain 2: SYVLTQPSSVSVAPGQTATISCGGHNIGSKNVHWYQQRPGQSPVLVIYQDNKRPSGIPERFSGSNSGNTATLTISGTQAMDEADYYCQVWDNYSVLFGGGTKLTVLGGSGGSQVQLVQSGAEVKKPGESLKVSCKASGYTFTSYYMHWVRQAPGQGLEWMGAIEPMYGSTSYAQKFQGRVTMTRDTSTSTVYMELSSLRSEDTAVYYCARGSAYYYDFADYWGQGTLVTVSSGGSGGSGGSGGSGGSGGSSYVLTQPSSVSVAPGQTATISCGGHNIGSKNVHWYQQRPGQSPVLVIYQDNKRPSGIPERFSGSNSGNTATLTISGTQAMDEADYYCQVWDNYSVLFGGGTKLTVLGGSGGSQVQLVQSGAEVKKPGESLKVSCKASGYTFTSYYMHWVRQAPGQGLEWMGAIEPMYGSTSYAQKFQGRVTMTRDTSTSTVYMELSSLRSEDTAVYYCARGSAYYYDFADYWGQGTLVTVSSGGGGSDKTHTCPPCPAPEFEGGPSVFLFPPKPKDTLMISRTPEVTCVVVAVSHEDPEVKFNWYVDGVEVHNAKTKPREEQYNSTYRVVSVLTVLHQDWLNGKEYKCKVSNKALPAPIEKTISKAKGQPREPQVYTLPPSREEMTKNQVSLYCLVKGFYPSDIAVEWESNGQPENNYKTTPPVLDSDGSFFLYSKLTVDKSRWQQGNVFSCSVMHEALHNHYTQKSLSLSPGGGGGSGGGGSEVQLLESGGGLVQPGGSLRLSCAASGFTFSNYDMAWVRQAPGKGLEWVSSISTRGDITSYRDSVKGRFTISRDNSKNTLYLQMNSLRAEDTAVYYCARQDYYTDYMGFAYWGQGTLVTVSSGGGGSGGGGSGGGGSAIQMTQSPSSLSASVGDRVTITCRASEDIYNGLAWYQQKPGKAPKLLIYGASSLQDGVPSRFSGSGSGTEFTLTISSLQPEDEATYYCAGPHKYPLTFGGGTKVEIK
# B4: aBi-scDb-Fc_03 (bispecific antibody)
# chain 1: DKTHTCPPCPAPEFEGGPSVFLFPPKPKDTLMISRTPEVTCVVVAVSHEDPEVKFNWYVDGVEVHNAKTKPREEQYNSTYRVVSVLTVLHQDWLNGKEYKCKVSNKALPAPIEKTISKAKGQPREPQVYTLPPSREEMTKNQVSLTCLVKGFYPSDIAVEWESNGQPENNYKTTPPVLDSDGSFFLTSKLTVDKSRWQQGNVFSCSVMHEALHNHYTQKSLSLSPGGGGGSGGGGSSYVLTQPSSVSVAPGQTATISCGGHNIGSKNVHWYQQRPGQSPVLVIYQDNKRPSGIPERFSGSNSGNTATLTISGTQAMDEADYYCQVWDNYSVLFGGGTKLTVLGGSGGSQVQLVQSGAEVKKPGESLKVSCKASGYTFTSYYMHWVRQAPGQGLEWMGAIEPMYGSTSYAQKFQGRVTMTRDTSTSTVYMELSSLRSEDTAVYYCARGSAYYYDFADYWGQGTLVTVSSGGSGGSGGSGGSGGSGGSSYVLTQPSSVSVAPGQTATISCGGHNIGSKNVHWYQQRPGQSPVLVIYQDNKRPSGIPERFSGSNSGNTATLTISGTQAMDEADYYCQVWDNYSVLFGGGTKLTVLGGSGGSQVQLVQSGAEVKKPGESLKVSCKASGYTFTSYYMHWVRQAPGQGLEWMGAIEPMYGSTSYAQKFQGRVTMTRDTSTSTVYMELSSLRSEDTAVYYCARGSAYYYDFADYWGQGTLVTVSSAAAGSHHHHHH
# chain 2: SYVLTQPSSVSVAPGQTATISCGGHNIGSKNVHWYQQRPGQSPVLVIYQDNKRPSGIPERFSGSNSGNTATLTISGTQAMDEADYYCQVWDNYSVLFGGGTKLTVLGGSGGSQVQLVQSGAEVKKPGESLKVSCKASGYTFTSYYMHWVRQAPGQGLEWMGAIEPMYGSTSYAQKFQGRVTMTRDTSTSTVYMELSSLRSEDTAVYYCARGSAYYYDFADYWGQGTLVTVSSGGSGGSGGSGGSGGSGGSSYVLTQPSSVSVAPGQTATISCGGHNIGSKNVHWYQQRPGQSPVLVIYQDNKRPSGIPERFSGSNSGNTATLTISGTQAMDEADYYCQVWDNYSVLFGGGTKLTVLGGSGGSQVQLVQSGAEVKKPGESLKVSCKASGYTFTSYYMHWVRQAPGQGLEWMGAIEPMYGSTSYAQKFQGRVTMTRDTSTSTVYMELSSLRSEDTAVYYCARGSAYYYDFADYWGQGTLVTVSSGGGGSDKTHTCPPCPAPEFEGGPSVFLFPPKPKDTLMISRTPEVTCVVVAVSHEDPEVKFNWYVDGVEVHNAKTKPREEQYNSTYRVVSVLTVLHQDWLNGKEYKCKVSNKALPAPIEKTISKAKGQPREPQVYTLPPSREEMTKNQVSLYCLVKGFYPSDIAVEWESNGQPENNYKTTPPVLDSDGSFFLYSKLTVDKSRWQQGNVFSCSVMHEALHNHYTQKSLSLSPGGGGGSGGGGSEVQLLESGGGLVQPGGSLRLSCAASGFTFSNYDMAWVRQAPGKGLEWVSSISTRGDITSYRDSVKGRFTISRDNSKNTLYLQMNSLRAEDTAVYYCARQDYYTDYMGFAYWGQGTLVTVSSGGGGSGGGGSGGGGSAIQMTQSPSSLSASVGDRVTITCRASEDIYNGLAWYQQKPGKAPKLLIYGASSLQDGVPSRFSGSGSGTEFTLTISSLQPEDEATYYCAGPHKYPLTFGGGTKVEIK
# Assays:
# Experiment in all cases: cell-based or functional assay
# [1] = molecular target: T2, EGFR on tumor target cells (MCF-7, Daudi, DK-MG, HCT-116) (UniProt P00533 25-1210, limits assumed)
# [2] = molecular target: T2, EGFR on tumor target cells (MCF-7, …); remark: listed apart in the source
# [3] = molecular target: CD16A on primary human NK cells (human, UniProt P08637 17-254)
# [4] = molecular target: T1, BCMA on MM.1S target cells
# CD16A on primary human NK cells, sequence (P08637 17-254 limits assumed): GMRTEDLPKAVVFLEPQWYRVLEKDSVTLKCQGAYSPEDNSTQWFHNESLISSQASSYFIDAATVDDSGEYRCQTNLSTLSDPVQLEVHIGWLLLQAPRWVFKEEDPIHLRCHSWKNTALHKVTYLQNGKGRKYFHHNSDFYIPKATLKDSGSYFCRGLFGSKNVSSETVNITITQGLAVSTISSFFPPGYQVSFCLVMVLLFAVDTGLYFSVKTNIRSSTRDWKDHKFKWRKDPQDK
Binder,"EC50 [pM], 4 h calcein-release cytotoxicity on MCF-7 target cells, NK cells E:T 5:1 [1] [pM]","Emax [%], 4 h calcein-release cytotoxicity on MCF-7 target cells, NK cells E:T 5:1 [1] [%]","EC50 [pM], 4 h calcein-release cytotoxicity on Daudi target cells, NK cells E:T 5:1 [2] [pM]","Emax [%], 4 h calcein-release cytotoxicity on Daudi target cells, NK cells E:T 5:1 [2] [%]","Emax [%], 4 h calcein-release NK cell fratricide assay, E:T 1:1 [3] [%]","EC50 [pM], 4 h calcein-release cytotoxicity on BCMA+ MM.1S target cells, NK cells E:T 5:1 [4] [pM]","Emax [%], 4 h calcein-release cytotoxicity on BCMA+ MM.1S target cells, NK cells E:T 5:1 [4] [%]"
B1,8.8,17.9,46.8,8,2.8,,
B2,2.1,25,18.6,18.2,15,,
B3,,,,,,1,46.4
B4,,,,,,2.4,51
